Reference: patent US20100021474A1 (Genentech, published 2010)

Experiments:
[1] = molecular target: T1, soluble form of HEPSIN comprising the entire extracellular domain (human HEPSIN Arg45-Leu417, His-tagged) (human, UniProt P05981 45-417); assay: Ki app, enzyme inhibition assay with chromogenic substrate S2366, fit to the tight binding inhibition equation
T1 construct: range 45-417; Under reducing SDS-PAGE it runs as a 20 kDa A-chain and a 30 kDa B-chain; also called soluble HEPSIN; recombinant soluble HEPSIN; not shown: His tag
T1 sequence (P05981 45-417 limits assumed): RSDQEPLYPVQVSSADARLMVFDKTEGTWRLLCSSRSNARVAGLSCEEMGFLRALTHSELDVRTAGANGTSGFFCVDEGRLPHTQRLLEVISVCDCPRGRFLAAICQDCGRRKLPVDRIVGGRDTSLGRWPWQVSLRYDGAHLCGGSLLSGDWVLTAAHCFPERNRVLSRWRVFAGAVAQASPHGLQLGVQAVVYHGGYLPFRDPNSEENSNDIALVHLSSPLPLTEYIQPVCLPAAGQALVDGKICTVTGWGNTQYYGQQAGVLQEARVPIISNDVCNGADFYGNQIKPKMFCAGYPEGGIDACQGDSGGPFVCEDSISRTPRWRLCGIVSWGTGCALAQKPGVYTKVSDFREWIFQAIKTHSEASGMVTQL
Method: (§1) A soluble form of the bi-Kunitz inhibitor HAI-2 was used as a stop reagent for the pro-uPA activation assay. […] HAI-2 was incubated with 0.5 nM HEPSIN or 10 nM uPA for 30 min in Hepes buffer (20 mM Hepes, pH 7.5, 150 mM NaCl, 5 mM CaCl₂, 0.01% Triton X-100) at room temperature. The chromogenic substrates S2366 (for HEPSIN) or S2444 (for uPA) were added at a concentration corresponding to their respective Kₘ values, which were determined in separate experiments. After substrate addition, the increase in absorbance at 405 nm was measured on a kinetic microplate reader (Molecular Devices, Sunnyvale, Calif.). The Kᵢ^app values were determined by fitting the data to the equation for tight binding inhibition (22,23).

[2] = molecular target: T2, uPA (high molecular weight form) (UniProt P00749 21-431, limits assumed); assay: Ki app, enzyme inhibition assay with chromogenic substrate S2444, fit to the tight binding inhibition equation
T2 construct: Bought reagent
Method: as §1

Ki [1]: 0.26 nM
Ki [2]: > 1000 nM
B1: soluble form of hepatocyte growth factor activator inhibitor-2 (HAI-2) (other, UniProt O43291 28-197, looked up)
chain: ADRERSIHDFCLVSKVVGRCRASMPRWWYNVTDGSCQLFVYGGCDGNSNNYLTKEECLKKCATVTENATGDLATSRNAADSSVPSAPRRQDSEDHSSDMFNYEEYCTANAVTGPCRASFPRWYFDVERNSCNNFIYGGCRGNKNSYRSEEACMLRCFRQQENPPLPLGSK
notes: Called a soluble form
